Source: publication PMC10397247
Like-named read-outs stand apart in the source and are kept apart here.

T1: P6-AA-1HAA-H
T1 chain: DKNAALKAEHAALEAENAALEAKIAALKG

T2: P6-AA-1HAA-T
T2 chain: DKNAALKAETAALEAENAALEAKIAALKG

T3: P6-AA-1HAA-D
T3 chain: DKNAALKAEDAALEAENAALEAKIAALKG

T4: P6-AA-1HAA-S
T4 chain: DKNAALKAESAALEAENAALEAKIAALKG

T5: P6-AA-1HAA-V
T5 chain: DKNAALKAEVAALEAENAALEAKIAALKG

T6: P6-AA-1HAA-L
T6 chain: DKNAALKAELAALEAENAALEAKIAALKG

T7: P6-AA-1HAA-R
T7 chain: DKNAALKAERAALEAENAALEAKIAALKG

T8: P6-AA-1HAA-Y
T8 chain: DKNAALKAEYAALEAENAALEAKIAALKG

T9: P6-AA-1HAA-E
T9 chain: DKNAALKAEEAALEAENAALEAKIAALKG

T10: P6-AA-1HAA-N
T10 chain: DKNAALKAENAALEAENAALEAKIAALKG

T11: P6-AA-1HAA-K
T11 chain: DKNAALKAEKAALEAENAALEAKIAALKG

T12: P6-AA-12HAA-T
T12 chain: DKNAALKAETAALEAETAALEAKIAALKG

T13: P6-AA-12HAA-S
T13 chain: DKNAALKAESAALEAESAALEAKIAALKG

T14: P6-AA-12HAA-R
T14 chain: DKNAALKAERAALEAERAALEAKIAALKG

T15: P6-AA-12HAA-K
T15 chain: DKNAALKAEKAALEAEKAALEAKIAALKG

T16: P6-AA-12HAA-Y
T16 chain: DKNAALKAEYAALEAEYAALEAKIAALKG

T17: P6-AA-12HAA-E
T17 chain: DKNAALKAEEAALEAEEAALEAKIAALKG

T18: P6-AA-12HAA-H
T18 chain: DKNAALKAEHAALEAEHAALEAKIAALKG

T19: P6-AA-12HAA-L
T19 chain: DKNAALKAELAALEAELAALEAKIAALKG

T20: P6-AA-12HAA-D
T20 chain: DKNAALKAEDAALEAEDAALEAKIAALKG

T21: P6-AA-12HAA-V
T21 chain: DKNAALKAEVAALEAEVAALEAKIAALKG


How the values were obtained:
Assay in all cases: two-hybrid library CCmax;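 also: natural log of median RNA to DNA barcode read ratio; higher means stronger binding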
P6-AA-1HAA-H = biological target: T1, P6-AA-1HAA-H
P6-AA-1HAA-T = biological target: T2, P6-AA-1HAA-T; conditions: mean of both orientations
P6-AA-1HAA-D = biological target: T3, P6-AA-1HAA-D; conditions: mean of both orientations
P6-AA-1HAA-S = biological target: T4, P6-AA-1HAA-S; conditions: mean of both orientations
P6-AA-1HAA-V = biological target: T5, P6-AA-1HAA-V; conditions: mean of both orientations
P6-AA-1HAA-L = biological target: T6, P6-AA-1HAA-L; conditions: mean of both orientations
P6-AA-1HAA-R = biological target: T7, P6-AA-1HAA-R; conditions: mean of both orientations
P6-AA-1HAA-Y = biological target: T8, P6-AA-1HAA-Y; conditions: mean of both orientations
P6-AA-1HAA-E = biological target: T9, P6-AA-1HAA-E; conditions: mean of both orientations
P6-AA-1HAA-N = biological target: T10, P6-AA-1HAA-N; conditions: mean of both orientations
P6-AA-1HAA-K = biological target: T11, P6-AA-1HAA-K; conditions: mean of both orientations
P6-AA-12HAA-T = biological target: T12, P6-AA-12HAA-T; conditions: mean of both orientations
P6-AA-12HAA-S = biological target: T13, P6-AA-12HAA-S; conditions: mean of both orientations
P6-AA-12HAA-R = biological target: T14, P6-AA-12HAA-R; conditions: mean of both orientations
P6-AA-12HAA-K = biological target: T15, P6-AA-12HAA-K; conditions: mean of both orientations
P6-AA-12HAA-Y = biological target: T16, P6-AA-12HAA-Y; conditions: mean of both orientations
P6-AA-12HAA-E = biological target: T17, P6-AA-12HAA-E; conditions: mean of both orientations
P6-AA-12HAA-H = biological target: T18, P6-AA-12HAA-H; conditions: mean of both orientations
P6-AA-12HAA-L = biological target: T19, P6-AA-12HAA-L; conditions: mean of both orientations
P6-AA-12HAA-D = biological target: T20, P6-AA-12HAA-D; conditions: mean of both orientations
P6-AA-12HAA-V = biological target: T21, P6-AA-12HAA-V; conditions: mean of both orientations

Row | Binder | interaction score (P6-AA-1HAA-H; mean of both orientations) | interaction score (P6-AA-1HAA-T) | interaction score (P6-AA-1HAA-D) | interaction score (P6-AA-1HAA-S) | interaction score (P6-AA-1HAA-V) | interaction score (P6-AA-1HAA-L) | interaction score (P6-AA-1HAA-R) | interaction score (P6-AA-1HAA-Y) | interaction score (P6-AA-1HAA-E) | interaction score (P6-AA-1HAA-N) | interaction score (P6-AA-1HAA-K) | also measured
1 | DENAALEAKLAALKAKNAALKAEIAALEG [P5-AA-1HAA-L] | 1.55 | 2.08 | -0.436 | 1.85 | 2.31 | 2.49 | 1.43 | 1.93 | 1.45 | 1.66 | 1.78 | 
2 | DENAALEAKEAALKAKNAALKAEIAALEG [P5-AA-1HAA-E] | -1.76 | -0.112 | -1.78 | -1.13 | 1.57 | 0.711 | -1.33 | -0.801 | -1.42 | -0.649 | -1.41 | 
3 | DENAALEAKHAALKAKNAALKAEIAALEG [P5-AA-1HAA-H] | -0.596 | 1.49 | -0.238 | 0.88 | 2.15 | 1.9 | -1.13 | 0.439 | -0.637 | 1.97 | -0.495 | 

Now from value to binder, other results behind:

Row | interaction score (P6-AA-1HAA-H; mean of both orientations) | interaction score (P6-AA-1HAA-T) | interaction score (P6-AA-1HAA-D) | interaction score (P6-AA-1HAA-S) | interaction score (P6-AA-1HAA-V) | interaction score (P6-AA-1HAA-L) | interaction score (P6-AA-1HAA-R) | interaction score (P6-AA-1HAA-Y) | interaction score (P6-AA-1HAA-E) | interaction score (P6-AA-1HAA-N) | interaction score (P6-AA-1HAA-K) | Binder | also measured
4 | 1.47 | 0.456 | -0.594 | 0.78 | 2.01 | 1.91 | 0.322 | 1.19 | 0.317 | 0.702 | 0.498 | DENAALEAKTAALKAKNAALKAEIAALEG [P5-AA-1HAA-T] | 
5 | 1.2 | 1.25 | -0.622 | 1.15 | 1.86 | 1.05 | 0.871 | 1.5 | 0.442 | 2.27 | 0.958 | DENAALEAKNAALKAKNAALKAEIAALEG [P5-AA-1HAA-N] | interaction score (P6-AA-12HAA-T): -0.0689; interaction score (P6-AA-12HAA-S): -0.405; interaction score (P6-AA-12HAA-R): -0.112; interaction score (P6-AA-12HAA-K): -0.291; interaction score (P6-AA-12HAA-Y): 0.697; interaction score (P6-AA-12HAA-E): -0.844; interaction score (P6-AA-12HAA-H): 0.901; interaction score (P6-AA-12HAA-L): -0.372; interaction score (P6-AA-12HAA-D): -1.55; interaction score (P6-AA-12HAA-V): -0.62
6 |  | 1.54 | -0.756 | 0.434 | 2.18 | 2.18 | -1.22 | 0.0514 | -0.332 | 1.85 | -0.713 | DENAALEAKRAALKAKNAALKAEIAALEG [P5-AA-1HAA-R] | interaction score (P6-AA-1HAA-H): -0.333
